Measured values from patent US9766245B2, “Method of detecting cancer based on glycan biomarkers” (California Institute of Technology, priority 2013, dated 2017).

What was measured:
[1] = biological target: T1, BgtA (Helicobacter mustelae, UniProt D3UIY4); test: BgtA labeling of Galβ(1-4)GlcNAc-pNP in solution; type: biochemical; conditions: 2 h, 25° C.
[2] = biological target: T1, BgtA; test: Chemoenzymatic labeling on the glycan array; type: biochemical; conditions: 0.5, 2 and 12 h, rt; ADIBO-biotin, Cy5-streptavidin; labeled if 12 h signal minus background >1000 relative fluorescence units
Experimental: Chemoenzymatic Labeling on the Glycan Array.
Glycan Array version 5.0 was provided by the Consortium for Functional Glycomics (CFG). Pre-equilibrated arrays were treated with BgtA enzyme (0.16 mg/mL) and 500 μM UDP-GalNAz 2 in 20 mM Tris.HCl pH 7.4, 50 mM NaCl, 2 mM MnCl2 containing 1% bovine serum albumin (BSA) for various times (0, 0.5, 2, and 12 h) at rt, washed 4 times with wash buffer (20 mM Tris.HCl pH 7.4, 50 mM NaCl, 0.1% Triton X-100) and then 4 times with rinse buffer (20 mM Tris.HCl pH 7.4, 50 mM NaCl). The arrays were then incubated with ADIBO-biotin (5 μM) in 20 mM Tris.HCl pH 7.4, 50 mM NaCl for 2 h at rt. […] The arrays were then washed 4 times with wash buffer (containing 0.05% Tween-20 instead of 0.1% Triton X-100), 4 times with rinse buffer, 4 times with water, dried under a low stream of filtered air, and scanned using a PerkinElmer ScanArray Express fluorescence scanner and ImaGene data analysis software (BioDiscovery). Data were analyzed per the guidelines of the CFG. […] Because background fluorescence can be heterogeneous across the array, each array was divided into areas of 10 by 10 spots, or sub-arrays, and a background fluorescence value was calculated within each sub-array by the software. This value was then subtracted from the fluorescence signal for each glycan spot within the sub-array by the software. […]

[3] = biological target: T1, BgtA; test: Kinetic analysis of BgtA with UDP-GalNAz and UDP-GalNAc; type: biochemical; conditions: 100 μM acceptor 1
Experimental: (§1) Kinetic Analysis of BgtA with UDP-GalNAz and UDP-GalNAc.
(§2) Reactions were performed in duplicate with 100 μM acceptor substrate (1), 0.7 μg BgtA, and varying concentrations of UDP-GalNAz or UDP-GalNAc (50 to 800 μM) in 20 mM Tris-HCl pH 7.5, 50 mM NaCl, 10 mM MnCl2 at rt in a total volume of 20 μL. Product formation was monitored at 280 nm by reverse phase-HPLC (Agilent 1100), and time points were taken over the course of 5 min using a linear, 3-95% gradient of B (A: 0.1% aqueous trifluoroacetic acid B: 0.1% trifluoroacetic acid in MeCN) over 8 min with a flow rate of 1 mL/min. The kinetic parameters, apparent Km, Vmax, and kcat, were obtained by linear regression analysis of initial velocity vs. donor substrate concentration using KaleidaGraph (version 4.1.2).

[4] = biological target: T1, BgtA; test: BgtA activity assay monitored by LC-MS/MS; type: biochemical; conditions: donor substrate, 12 h at 4° C.
Experimental: BgtA Activity Assay and Monitoring of Chemoenzymatic Labeling Reactions by LC-MS/MS.
The Fucα(1-2)Gal substrate 1 (10 μM) was dissolved in 20 mM Tris.HCl pH 7.5, 50 mM NaCl, and 5 mM MnCl2. BgtA enzyme (Yi, W.; Shen, J.; Zhou, G.; Li, J.; Wang, P. G. J. Am. Chem. Soc. 2008, 130, 14420.) and UDP-ketoGal 3 (Khidekel, N.; Arndt, S.; Lamarre-Vincent, N.; Lippert, A.; Poulin-Kerstien, K. G.; Ramakrishnan, B.; Qasba, P. K.; Hsieh-Wilson, L. C. J. Am. Chem. Soc. 2003, 125, 16162.) or UDP-GalNAz 2 (Invitrogen) were added to final concentrations of 0.16 mg/mL and 50 μM, respectively, in a final volume of 100 μL. The reaction was incubated at 4° C. in the dark for 12-16 h, and the reaction progress was monitored by LC-MS/MS. To label with aminooxy-biotin 7, the reactions were diluted 5-fold with saturated urea, 2.7 M NaOAc pH 3.9 (50 mM final concentration and pH 4.8), and 7 (5 mM final concentration, Dojindo) and incubated for 20-24 h at rt. To label with ADIBO-biotin 6, 250 μM of 6 (Click Chemistry Tools) was added, and the reaction was incubated for 3 h at rt. […]

[5] = system: CC(=O)N[C@H]1[C@@H](OP(=O)(O)OP(=O)(O)OC[C@H]2O[C@@H](n3ccc(=O)[nH]c3=O)[C@H](O)[C@@H]2O)O[C@H](CO)[C@H](O)[C@@H]1O; test: Kinetic analysis of BgtA with UDP-GalNAz and UDP-GalNAc; type: biochemical, Helicobacter mustelae; conditions: other: donor substrate, 100 μM acceptor 1, donor 50 to 800 μM, rt; pH 7.5
Experimental: as §1, §2

[6] = system: [N-]=[N+]=NCC(=O)N[C@H]1[C@@H](OP(=O)(O)OP(=O)(O)OC[C@H]2O[C@@H](n3ccc(=O)[nH]c3=O)[C@H](O)[C@@H]2O)O[C@H](CO)[C@H](O)[C@@H]1O; test: as above; type: biochemical, Helicobacter mustelae; conditions: other: donor substrate, 100 μM acceptor 1, donor 50 to 800 μM, rt; pH 7.5
Experimental: as §1, §2

[7] = biological target: T1, BgtA; test: Chemoenzymatic labeling of cell lysates, streptavidin capture and Western blotting; type: biochemical; conditions: rat brain (olfactory bulb) lysates, BgtA + UDP-GalNAz, alkyne-biotin 11, streptavidin capture, immunoblot; in the presence but not absence of BgtA

Molecule: CC(=O)N[C@H]1[C@H](Oc2ccc([N+](=O)[O-])cc2)O[C@H](CO)[C@@H](O[C@@H]2O[C@H](CO)[C@H](O)[C@H](O)[C@H]2O)[C@@H]1O [Galβ(1-4)GlcNAc-pNP, p-nitrophenyl 2-acetamido-2-deoxy-4-O-(β-D-galactopyranosyl)-β-D-glucopyranoside]
- labeling by BgtA in solution [1]: failed to label

Molecule: CC(=O)N[C@@H]1[C@@H](O[C@@H]2O[C@H](CO)[C@H](O)[C@H](O)[C@H]2O[C@@H]2O[C@@H](C)[C@@H](O)[C@@H](O)[C@@H]2O)[C@H](O[C@@H]2O[C@@H](C)[C@@H](O)[C@@H](O)[C@@H]2O)[C@@H](CO)O[C@H]1O [Glycan 61]
- labeling of glycan by BgtA and UDP-GalNAz on microarray [2]: weak labeling

Molecule: CC(=O)N[C@H]1[C@@H](OP(=O)(O)OP(=O)(O)OC[C@H]2O[C@@H](n3ccc(=O)[nH]c3=O)[C@H](O)[C@@H]2O)O[C@H](CO)[C@H](O)[C@@H]1O [UDP-GalNAc]
- Vmax fold higher than that of UDP-GalNAz [3]: approximately 5 fold

Molecule: [N-]=[N+]=NCC(=O)N[C@H]1[C@@H](OP(=O)(O)OP(=O)(O)OC[C@H]2O[C@@H](n3ccc(=O)[nH]c3=O)[C@H](O)[C@@H]2O)O[C@H](CO)[C@H](O)[C@@H]1O [UDP-GalNAz, UDP-N-azidoacetylgalactosamine]
- kcat/Km fold lower than natural UDP-GalNAc substrate [3]: approximately 7 fold
- conversion of substrate 1 to the desired product with BgtA [4]: complete conversion

Molecule: BgtA (Helicobacter mustelae 12198)
- Km [5]: 127 ± 36 µM
- Vmax [5]: 0.100 ± 0.010 nmol/min
- Km [6]: 168 ± 55 µM
- Vmax [6]: 0.020 ± 0.002 nmol/min

Molecule: UDP-2-deoxy-2-(acetonyl)-β-D-galactopyranoside [UDP-ketoGal]
- conversion of substrate 1 to the desired product with BgtA [4]: complete conversion

Molecule: synapsin I: known Fucα(1-2)Gal glycoprotein in rat brain lysate
- chemoenzymatic labeling and detection of glycoprotein [7]: chemoenzymatically labeled and detected

B1: NCAM: known Fucα(1-2)Gal glycoprotein in rat brain lysate (protein, UniProt P13596 20-858, looked up)
Neural cell adhesion molecule …: LQVDIVPSQGEISVGESKFFLCQVAGDAKDKDISWFSPNGEKLSPNQQRISVVWNDDDSSTLTIYNANIDDAGIYKCVVTAEDGTQSEATVNVKIFQKLMFKNAPTPQEFKEGEDAVIVCDVVSSLPPTIIWKHKGRDVILKKDVRFIVLSNNYLQIRGIKKTDEGTYRCEGRILARGEINFKDIQVIVNVPPTVQARQSIVNATANLGQSVTLVCDADGFPEPTMSWTKDGEPIENEEEDDEKHIFSDDSSELTIRNVDKNDEAEYVCIAENKAGEQDASIHLKVFAKPKITYVENQTAMELEEQVTLTCEASGDPIPSITWRTSTRNISSEEKASWTRPEKQETLDGHMVVRSHARVSSLTLKSIQYTDAGEYICTASNTIGQDSQSMYLEVQYAPKLQGPVAVYTWEGNQVNITCEVFAYPSATISWFRDGQLLPSSNYSNIKIYNTPSASYLEVTPDSENDFGNYNCTAVNRIGQESLEFILVQADTPSSPSIDRVEPYSSTAQVQFDEPEATGGVPILKYKAEWKSLGEEAWHSKWYDAKEANMEGIVTIMGLKPETRYAVRLAALNGKGLGEISAATEFKTQPVREPSAPKLEGQMGEDGNSIKVNLIKQDDGGSPIRHYLVKYRALASEWKPEIRLPSGSDHVMLKSLDWNAEYEVYVVAENQQGKSKAAHFVFRTSAQPTAIPANGSPTAGLSTGAIVGILIVIFVLLLVVMDITCYFLNKCGLLMCIAVNLCGKAGPGAKGKDMEEGKAAFSKDESKEPIVEVRTEEERTPNHDGGKHTEPNETTPLTEPEKGPVETKSEPQESEAKPAPTEVKTVPNEATQTKENESKA
- chemoenzymatic labeling and detection of glycoprotein [7]: chemoenzymatically labeled and detected

B2: p44 MAPK: a protein that has not been shown to be fucosylated (protein, UniProt P21708 2-380, looked up)
Mitogen-activated protein …: AAAAAAPGGGGGEPRGTAGVVPVVPGEVEVVKGQPFDVGPRYTQLQYIGEGAYGMVSSAYDHVRKTRVAIKKISPFEHQTYCQRTLREIQILLRFRHENVIGIRDILRAPTLEAMRDVYIVQDLMETDLYKLLKSQQLSNDHICYFLYQILRGLKYIHSANVLHRDLKPSNLLINTTCDLKICDFGLARIADPEHDHTGFLTEYVATRWYRAPEIMLNSKGYTKSIDIWSVGCILAEMLSNRPIFPGKHYLDQLNHILGILGSPSQEDLNCIINMKARNYLQSLPSKTKVAWAKLFPKSDSKALDLLDRMLTFNPNKRITVEEALAHPYLEQYYDPTDEPVAEEPFTFDMELDDLPKERLKELIFQETARFQPGAPEAP
- chemoenzymatic labeling and detection of glycoprotein [7]: not detected
